Measurements taken from patent US20240228562A1, “NOVEL LIPOCALIN MUTEINS SPECIFIC FOR CONNECTIVE TISSUE GROWTH FACTOR (CTGF)” (PIERIS PHARMACEUTICALS GMBH, priority 2021, published 2024).

T1: Rat CTGF (Rattus norvegicus, UniProt Q9R1E9)
T1 construct: purchased R&D Systems
T1 sequence (Q9R1E9 25-347): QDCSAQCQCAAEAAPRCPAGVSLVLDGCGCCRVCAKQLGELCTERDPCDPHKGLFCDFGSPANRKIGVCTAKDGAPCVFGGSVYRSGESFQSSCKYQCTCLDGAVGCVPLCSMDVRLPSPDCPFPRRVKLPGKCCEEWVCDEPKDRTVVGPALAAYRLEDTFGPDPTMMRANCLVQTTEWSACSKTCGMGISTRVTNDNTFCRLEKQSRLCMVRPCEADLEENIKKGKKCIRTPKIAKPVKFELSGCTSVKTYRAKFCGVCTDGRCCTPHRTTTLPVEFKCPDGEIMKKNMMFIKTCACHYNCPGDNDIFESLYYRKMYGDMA

T2: huNOV (Homo sapiens, UniProt P48745)
T2 sequence (P48745 32-357): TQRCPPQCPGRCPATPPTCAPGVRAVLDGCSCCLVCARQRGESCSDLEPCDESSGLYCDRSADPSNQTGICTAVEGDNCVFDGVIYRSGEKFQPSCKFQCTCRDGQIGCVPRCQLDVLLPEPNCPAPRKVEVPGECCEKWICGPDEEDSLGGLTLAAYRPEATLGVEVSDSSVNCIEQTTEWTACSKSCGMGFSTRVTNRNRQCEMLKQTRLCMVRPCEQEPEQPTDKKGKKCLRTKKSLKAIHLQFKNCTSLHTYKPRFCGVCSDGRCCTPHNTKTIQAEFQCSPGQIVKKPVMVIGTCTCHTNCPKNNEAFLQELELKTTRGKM

T3: huWISP-2 (Homo sapiens, UniProt O76076)
T3 sequence (O76076 24-250): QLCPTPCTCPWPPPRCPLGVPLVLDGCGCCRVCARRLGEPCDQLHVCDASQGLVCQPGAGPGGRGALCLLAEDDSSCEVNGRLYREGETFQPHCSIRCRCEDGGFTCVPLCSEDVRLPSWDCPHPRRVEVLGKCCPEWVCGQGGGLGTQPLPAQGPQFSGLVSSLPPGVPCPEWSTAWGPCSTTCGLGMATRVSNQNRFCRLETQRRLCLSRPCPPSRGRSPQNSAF


Key:
Rat CTGF = molecular target: T1, Rat CTGF; experiment: SPR binding kinetics and affinity, rat CTGF; settings: 25° C., 1:1 binding model
How it was run: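 Targets either amine-coupled to CM5 chip (300–1100 RU; Fc-tagged human, untagged rat/murine) or Fc-captured via anti-human IgG; muteins injected 180 s contact, 900–3600 s dissociation, 30 μL/min, 25° C. Double-referenced sensorgrams fit to 1:1 model giving kon, koff and KD.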

[1] = molecular target: T4, Human CTGF with a human IgG1 Fc Tag (Homo sapiens, UniProt P29279, H83D); experiment: SPR epitope analysis (simultaneous binding)
T4 construct: purchased Creative Biomart
Protocol: Surface plasmon resonance (SPR) was used to analyze the epitopes and determine simultaneous binding of different lipocalin muteins. Human CTGF with a human IgG1 Fc Tag was directly immobilized to a CM5 Chip (Creative Biomart, 10 μg/mL in 10 mM sodium acetate pH 4.5) until an immobilization level of 470-630 resonance units was achieved. The reference channel was activated/deactivated. […] As control, single lipocalin muteins were injected and the resulting signal of single and mixtures was compared at the end of the injection. The chip was regenerated with 3 M MgCl2 and Glycine-HCl pH1.5 for each 60 s at a flowrate of 15 μL/min.
“Yes” means simultaneous binding is possible, “no” stands for same or overlapping epitope, “n.t.” stands for not tested.

huNOV = molecular target: T2, huNOV; experiment: Specificity ELISA (CCN proteins), huNOV; assay type: binding; settings: coated 1 μg/ml; assessed when human CTGF signal approached saturation
Protocol: (§1) Binding of muteins to closely related proteins of CTGF was tested by an ELISA assay. In detail, a 384-well plate suitable for fluorescence measurements (Greiner FLUOTRAC™ 600, black flat bottom, high-binding) was coated with 20 μl of human CTGF or the other members of the CCN protein family at a concentration of 1 μg/ml in PBS over night at 4° C. After washing with PBS with 0.05% Tween 20, wells were blocked with 100 μl blocking buffer containing 0.1% Tween 20 and 2% BSA (PBS-T/BSA) for 1 h at room temperature. 20 μl of serially diluted muteins starting at 1000 nM were incubated in PBS-T/BSA for 1 h at room temperature (RT).
(§2) The residual supernatants were discarded and 20 μl HRP-labeled anti-NGAL or anti-Strep-Tag antibody was added at a predetermined optimal concentration in PBS-T/BSA and incubated for 1 h at RT. After washing, 20 μl fluorogenic HRP substrate (QuantaBlu, Thermo) was added to each well, and the reaction was allowed to proceed for 2 to 60 minutes. The fluorescence intensity of every well on the plate was read using a fluorescence microplate reader (Tecan). When the signal for human CTGF approached saturation, the cross reactivity to the other proteins was assessed.

huWISP-2 = molecular target: T3, huWISP-2; experiment: Specificity ELISA (CCN proteins), huWISP-2; assay type: binding; settings: coated 1 μg/ml; assessed when human CTGF signal approached saturation
Protocol: as §1, §2

[2] = SPR, mixed and injected simultaneously at 750 nM or 1000 nM

T4 sequence (P29279 with tags, fused parts or gaps H83D): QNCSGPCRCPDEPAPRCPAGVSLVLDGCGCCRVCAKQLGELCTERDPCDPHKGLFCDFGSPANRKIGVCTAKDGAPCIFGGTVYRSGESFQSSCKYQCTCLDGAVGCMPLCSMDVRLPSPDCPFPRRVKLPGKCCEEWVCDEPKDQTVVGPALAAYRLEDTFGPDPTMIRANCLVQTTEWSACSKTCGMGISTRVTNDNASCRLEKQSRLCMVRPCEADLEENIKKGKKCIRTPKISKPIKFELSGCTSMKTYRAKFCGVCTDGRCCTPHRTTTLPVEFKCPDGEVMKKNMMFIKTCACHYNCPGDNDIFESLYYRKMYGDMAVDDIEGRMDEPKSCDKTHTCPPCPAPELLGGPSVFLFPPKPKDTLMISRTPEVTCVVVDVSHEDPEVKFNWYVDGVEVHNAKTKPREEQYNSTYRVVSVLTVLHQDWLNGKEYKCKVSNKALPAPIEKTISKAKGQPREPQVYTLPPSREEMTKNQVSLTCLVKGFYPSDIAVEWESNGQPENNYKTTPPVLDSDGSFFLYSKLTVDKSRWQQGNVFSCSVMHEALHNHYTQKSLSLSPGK

Molecule	Kd (Rat CTGF) [nM]	Rat CTGF koff (Rat CTGF) [s⁻¹]	Rat CTGF kon (Rat CTGF) [M⁻¹ s⁻¹]	Simultaneous binding with SEQ ID NO: 3 [1, 2]	Simultaneous binding with SEQ ID NO: 60 and 61 (control antibody) [1, 2]	ELISA binding to huNOV (huNOV)	ELISA binding to huWISP-2 (huWISP-2)	Simultaneous binding with SEQ ID NO: 7 [1, 2]	Simultaneous binding with SEQ ID NO: 9 [1, 2]	Simultaneous binding with SEQ ID NO: 25 [1, 2]	Simultaneous binding with SEQ ID NO: 29 [1, 2]	Epitope overlap with anti-CTGF antibody of SEQ ID NOs: 60 and 61 [1]
SEQ ID NO: 3: parent CTGF-binding hNGAL lipocalin mutein (protein, lipocalin mutein) QDSTSDLIPAPPLSKVPLQQNFQDNQFHGKWYVVGRAGNNRLREDKDPPKMWATIYELKEDKSYNVTHVHFMTKKCRYIIDTFVPGSQPGEFTLGAIKSGPGMTSPLVRIVSTNYNQHAMVFFKWVNQNREWFTITLYGRTKELTSELKENFIRFSKSLGLPENHIVFPVPIDQCIDG	39.3	0.0117	297000	no	yes	No binding	No binding					
SEQ ID NO: 74: fusion protein comprising two CTGF-binding lipocalin muteins (protein, fusion protein) QDSTSDLIPAPPLSKVPLQQNFQDNQFQGKWYVVGLAGNAILREDKQPAKMFATIYELKEDKSYDVTSVRFEAKSCKYTIKTFVPGSQPGEFTAGYIKSAPGQTSTLVRVVSTNYNQHAMVFFKHVTQNREIFVITLYGRTKELTSELKENFIRFSKSLGLPENHIVFPVPIDQCIDGGGGGSGGGGSGGGGSQDSTSDLIPAPPLSKVPLQQNFQDNQFQGKWYVVGWAGNVKLREDKQPQKMSATIYELKEDKSYDVTEVVFEQKKCHYIIKTFVPGSQPGEFTAGDIKSPPGYTSSLVRVVSTNYNQHAMVFFKKVSQNREFFWITLYGRTKELTSELKENFIRFSKSLGLPENHIVFPVPIDQCIDG						No binding	No binding					
SEQ ID NO: 7: parent CTGF-binding hNGAL lipocalin mutein (protein, lipocalin mutein) QDSTSDLIPAPPLSKVPLQQNFQDNQFHGKWYVVGLAGNYGLRTDKRPSKMFATIYELKEDKSYDVTSVRFEQERCHYTIRTFVPGSQPGEFTTGSIKSRPGQTSSLVRVVSTNYNQHAMVFFKSVIQNREYFAITLYGRTKELTSELKENFIRFSKSLGLPENHIVFPVPIDQCIDG	62.8	0.00754	120000		no	No binding	No binding	no	no	yes	yes	
SEQ ID NO: 29: parent CTGF-binding hNGAL lipocalin mutein (protein, lipocalin mutein) QDSTSDLIPAPPLSKVPLQQNFQDNQFHGKWYVVGWAGNIKLREDKDPFKMSATIYELKEDKSYNVTEVVFEQKKCHYIIKTFVPGSQPGEFTLGDIKSPPGETSSLVRVVSTNYNQHAMVFFKKVFQNREFFWITLYGRTKELTSELKENFIRFSKSLGLPENHIVFPVPIDQCIDG	18	0.00317	176000		yes	No binding	No binding	yes	yes	no	no	
SEQ ID NO: 23: optimized CTGF-binding hNGAL lipocalin mutein (protein, lipocalin mutein) QDSTSDLIPAPPLSKVPLQQNFQDNQFQGKWYVVGVAGNAILRPDKQPAKMFATIYELKEDKSYDVTSVRFEAKSCKYTIKTFVPGSQPGEFTSGQIKSAPGQTSTLVRVVSTNYNQHAMVFFKHVSQNREIFVITLYGRTKELTSELKENFIRFSKSLGLPENHIVFPVPIDQCIDG						No binding	No binding					overlapped
SEQ ID NO: 15: optimized CTGF-binding hNGAL lipocalin mutein (protein, lipocalin mutein) QDSTSDLIPAPPLSKVPLQQNFQDNQFQGKWYVVGLAGNAILREDKQPAKMFATIYELKEDKSYDVTSVRFEAKSCKYTIKTFVPGSQPGEFTAGYIKSAPGQTSTLVRVVSTNYNQHAMVFFKHVTQNREIFVITLYGRTKELTSELKENFIRFSKSLGLPENHIVFPVPIDQCIDG		0.000114	120000			No binding	No binding					
SEQ ID NO: 9: parent CTGF-binding hNGAL lipocalin mutein (protein, lipocalin mutein) QDSTSDLIPAPPLSKVPLQQNFQDNQFHGKWYVVGLAGNKILRIDKQPAKMFATIYELKEDKSYDVTSVRFEARSCSYTIKTFVPGSQPGEFTAGNIKSAPGQTSTLVRVVSTNYNQHAMVFFKHVSQNRETFVITLYGRTKELTSELKENFIRFSKSLGLPENHIVFPVPIDQCIDG	16	0.00169	105000		no	No binding	No binding	no	no	yes	yes	
SEQ ID NO: 25: parent CTGF-binding hNGAL lipocalin mutein (protein, lipocalin mutein) QDSTSDLIPAPPLSKVPLQQNFQDNQFHGKWYVVGMAGNFRLREDKDPSKMGATIYELKEDKSYNVTQVQFDDKKCLYVIETFVPGSQPGEFTLGAIKSFPGFTSQLVRVVSTNYNQHAMVFFKKVYQNREVFWITLYGRTKELTSELKENFIRFSKSLGLPENHIVFPVPIDQCIDG	27.7	0.00129	46500		yes	No binding	No binding	yes	yes	no	no	
